In publication PMC11982978, “Cancer hotspot mutations rewire ERK2 specificity by selective exclusion of docking interactions” (The Journal of Biological Chemistry, 2025):
Where two headings read alike, the source gives them in different places. One block for each binder: values may come before it. Ends that are not written are not given here.

Assays:
[1] = molecular target: T1, Active phosphorylated His6-tagged ERK2 WT (rat (p-0033 says mouse)), P63086; details: modification not given; phosphorylated (active form; sites not given)
[2] = molecular target: T2, Active phosphorylated His6-tagged ERK2 E320K (rat (p-0033 says mouse)), P63086; details: modification not given; phosphorylated (active form; sites not given)
T2 chain: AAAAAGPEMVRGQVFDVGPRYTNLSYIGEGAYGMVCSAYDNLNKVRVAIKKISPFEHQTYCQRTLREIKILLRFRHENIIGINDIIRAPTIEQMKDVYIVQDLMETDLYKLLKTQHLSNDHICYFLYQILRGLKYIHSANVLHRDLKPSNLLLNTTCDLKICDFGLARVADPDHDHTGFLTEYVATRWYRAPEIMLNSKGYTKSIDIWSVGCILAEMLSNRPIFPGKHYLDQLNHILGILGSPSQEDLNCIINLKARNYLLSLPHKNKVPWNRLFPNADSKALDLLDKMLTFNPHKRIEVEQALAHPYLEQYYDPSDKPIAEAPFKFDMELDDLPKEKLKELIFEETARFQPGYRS

[3] = molecular target: T3, Active phosphorylated His6-tagged ERK2 R133K (rat (p-0033 says mouse)), P63086; details: modification not given; phosphorylated (active form; sites not given)
T3 chain: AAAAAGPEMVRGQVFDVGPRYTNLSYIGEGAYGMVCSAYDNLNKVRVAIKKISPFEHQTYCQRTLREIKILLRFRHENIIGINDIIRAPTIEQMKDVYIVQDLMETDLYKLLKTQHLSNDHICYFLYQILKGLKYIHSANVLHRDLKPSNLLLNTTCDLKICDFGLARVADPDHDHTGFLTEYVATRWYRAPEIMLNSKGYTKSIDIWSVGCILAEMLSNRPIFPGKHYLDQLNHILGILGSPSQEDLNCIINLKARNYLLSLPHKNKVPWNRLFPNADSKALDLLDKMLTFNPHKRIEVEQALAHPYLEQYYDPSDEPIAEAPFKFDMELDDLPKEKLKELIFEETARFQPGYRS

[4] = molecular target: T4, Active phosphorylated His6-tagged ERK2 D319N (rat (p-0033 says mouse)), P63086; details: modification not given; phosphorylated (active form; sites not given)
T4 chain: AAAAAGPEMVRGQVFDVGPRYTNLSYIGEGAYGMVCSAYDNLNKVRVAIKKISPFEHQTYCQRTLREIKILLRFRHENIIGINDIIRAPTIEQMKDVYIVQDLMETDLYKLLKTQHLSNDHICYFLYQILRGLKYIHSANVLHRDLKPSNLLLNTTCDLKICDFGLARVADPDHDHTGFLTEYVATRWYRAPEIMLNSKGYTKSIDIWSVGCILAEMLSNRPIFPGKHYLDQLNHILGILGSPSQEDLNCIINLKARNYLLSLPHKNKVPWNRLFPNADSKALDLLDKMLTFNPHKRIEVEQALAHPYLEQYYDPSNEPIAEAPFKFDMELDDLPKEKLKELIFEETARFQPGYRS

[5] = molecular target: T1, Active phosphorylated His6-tagged ERK2 …; details: modification not given; phosphorylated (active form; sites not given); remark: listed apart in the source
[6] = molecular target: T3, Active phosphorylated His6-tagged ERK2 …; details: modification not given; phosphorylated (active form; sites not given)
[7] = molecular target: T2, Active phosphorylated His6-tagged ERK2 …; details: modification not given; phosphorylated (active form; sites not given)
[8] = molecular target: T4, Active phosphorylated His6-tagged ERK2 …; details: modification not given; phosphorylated (active form; sites not given)
[9] = molecular target: T4, Active phosphorylated His6-tagged ERK2 …; test: competitive peptide kinase assay; D-peptide titrated as competitive inhibitor of 10 nM ERK2 on 5 μM D-site dependent reporter peptide (AQT0376), 10 μM ATP; 54 mM HEPES pH 7.4, 1.2 mM DTT, 0.01% Brij-35, 1% glycerol, 0.2 mg/ml BSA, 10 mM MgCl2; fluorescence read-out; IC50 as relative binding affinity
[10] = molecular target: T3, Active phosphorylated His6-tagged ERK2 …; test: as above
[11] = molecular target: T2, Active phosphorylated His6-tagged ERK2 …; test: as above
[12] = molecular target: T1, Active phosphorylated His6-tagged ERK2 …; test: as above
[13] = molecular target: T4, Active phosphorylated His6-tagged ERK2 …; details: modification not given; phosphorylated (active form; sites not given)
[14] = molecular target: T2, Active phosphorylated His6-tagged ERK2 …; details: modification not given; phosphorylated (active form; sites not given)
[15] = molecular target: T1, Active phosphorylated His6-tagged ERK2 …; details: modification not given; phosphorylated (active form; sites not given); remark: listed apart in the source
[16] = molecular target: T3, Active phosphorylated His6-tagged ERK2 …; details: modification not given; phosphorylated (active form; sites not given)

B2: ELK1 (peptide)
chain: PQKGRKPRDLELPL
modifications: not fully specified (some residues, N-terminus)
- IC50 [5]: 35 µM
- IC50 [6]: 58 µM
- IC50 [7]: 43 µM
- IC50 [8]: 32 µM

B3: ISG20 D-peptide G2+ (peptide)
chain: IGRARRGLPRLAVSD
modifications: not checked
- IC50 [9]: 150 µM
- IC50 [10]: 150 µM
- IC50 [11]: 170 µM
- IC50 [12]: 120 µM

B5: ISG20 D-peptide G7+ (peptide)
chain: IRARRGGLPRLAVSD
modifications: not checked
- IC50 [9]: 150 µM
- IC50 [10]: 170 µM
- IC50 [11]: 210 µM
- IC50 [12]: 75 µM

The remaining lines, values ahead:

- IC50 [1]: 42 µM
- IC50 [2]: 600 µM
- IC50 [3]: 760 µM
- IC50 [4]: 600 µM
B1: PTPN5 (peptide)
chain: GLQERRGSNVSLTL
modifications: not fully specified (some residues, N-terminus)

- IC50 [13]: 23 µM
- IC50 [14]: 41 µM
- IC50 [15]: 23 µM
- IC50 [16]: 29 µM
B4: MAP2K2 (peptide)
chain: ARRKPVLPALTINP
modifications: not fully specified (some residues, N-terminus)
